PMC4952014

Target: immobilized trimeric proteins
Assay: SPR; reverse set-up: JR-FL gp120 (900 RU), JR-FL FD gp145 (1400 RU), SF162 FD gp145 (900 RU) or Soc-V1V2JR-FL amine-coupled to CM5 chips; Siglec-1 injected in 10 mM HEPES, 150 mM NaCl pH 7.4, 30 µl/min; some runs with 50 nM Siglec-1 and lactose, 6'-sialyllactose or sialic acid

Siglec-1 (recombinant protein used for SPR) (from UniProt Q9BZZ2 20-1709) (receptor)
fold less affinity than trimeric proteins on immobilized Siglec-1: 10 to 20 fold
